B1: mRNA-splicing (parent)
chain: AGUUGCUGCUGGGAGCUCCAGCACAGUGAAAUGGACAGAAGGGCAGAGCAA

These results are taken from the RNAGym collection of RNA variant scans (doi:10.1101/gr.219683.116).

In the data set the parent is B1. In words: exon inclusion enrichment index; higher = more inclusion; WT1 exon 5 minigene, HEK293.
As for AGUUGAAGAAGGGGGCUCCAGCACAGUGAAAUGGACAGAAGGGCAGAGCAA, the “exon inclusion enrichment index” value was 0.618. The value for AGUUAUAUAUGGGAGCUCCAGCACAGUGAAAUGGUCAGAAGGGCAGAGCAA was 0.00487; that for AGUUCUUCUCGGGAGCUCCAGCACAGUGCGAUGGACAGAAGGGCAGAGCAA was 3.25. The value for AGUUAUAUAUGGGAGCUCCGGCACAGUGAAAUGGACAGAAGGGCAGAGCAA was 0.102; that for AGUUGCUGCUGGGAGCUCCAGCACAGUGAAAUUGACAGAAGGGCAGAGCAA was 0.0261; that for AGUUCGCGCCGGGAGCUCCAGCACAGUGAAAUGGACAGAGAGGCAGAGCAA was 1.99. The value for AGUUCGCGCCGGGAGCUCCAGCACAGUGAAAUGGACAGAAGAACAGAGCAA was 4.65; that for AGUUCGCGCCGGGAGCUCCAGCACAGUGAAAUGGACAGAAGCUCAGAGCAA was 3.91.

AGUUCGCGCCGGGAGCUCCAGCACAGUGAAAUGGACAGAAGCCCAGAGCAA: the “exon inclusion enrichment index” value came out at 3.63. AGUUACCACCGGGAGCUCCAGCACAGUGAAAUGGGGAGAAGGGCAGAGCAA: the “exon inclusion enrichment index” value was 0.306. The value for AGUUGAAGAAGGGAGCUCCAGCACAGUGACUUGGACAGAAGGGCAGAGCAA was 0.986; that for AGUUAGGGAUGGGAGCUCCAGCACAGUGAAUGGGACAGAAGGGCAGAGCAA was 0.0027; that for AGUUGAAGAAGGGAGCUCCAGCACAGUGAAAUAAACAGAAGGGCAGAGCAA was 0.0545.

Take AUAUGCUGCUGGGAGCUCCAGCACAGUGAAAUGGACAGAAGGGCAGAGCAA: the “exon inclusion enrichment index” value was determined as 0.342. Consider AGUUGUAUAUGGGAGCUCCAGCACAGUGAAAUGGACAGAAGGGCAGAGCAA, for which the “exon inclusion enrichment index” value amounted to 0.17. The value for AGUUCUUCUCGGGAGCUCCAGCACAGUGAAAUGGACAGAAGGGCAGUGCAA was 1.87; that for AGUUACCACCGGGAUUUCCAGCACAGUGAAAUGGACAGAAGGGCAGAGCAA was 1.86; that for AGUUGACGACGGGAGCUCCAGCGGAGUGAAAUGGACAGAAGGGCAGAGCAA was 4.2. On to AGUUUCUUUAUGGAGCUCCAGCACAGUGAAAUGGACAGAAGGGCAGAGCAA, for which the “exon inclusion enrichment index” value was found to be 0.0867. The value for AGUUGAAGAAGGGAGCUCCAGCACAGUGAAAUGGACAGAAGGGCAGUGCAA was 0.546; that for AGUUAGUAAUGGGAGCUCCAGCACAGUGAAAUGGACAGAAGGGCAGAGCAA was 0.00571. The value for AGUUAGGGACGGGAGCUCCAGCACAGUGAAAUGGACAGAAGGGCAGAGCAA was 0.00449; that for AGUUGACGACGGGAGCUCCAGCACAGUGAAAUGGACAGAAGAUCAGAGCAA was 4.39; that for AGUUAUAUAUGGGACAUCCAGCACAGUGAAAUGGACAGAAGGGCAGAGCAA was 0.0446. As for AGUUAGGGAUGGGAGCUCCAGCACAGUGAAAUGGACAGAAAAGCAGAGCAA, the figure is 0.0013.

AAAUGACGACGGGAGCUCCAGCACAGUGAAAUGGACAGAAGGGCAGAGCAA: the “exon inclusion enrichment index” value was 2.68. Consider AGUUCGCGCCGGGAGCUCCAGCACCGUGAAAUGGACAGAAGGGCAGAGCAA, for which the “exon inclusion enrichment index” value was 4.98. As for AGUUACCACCGUCAGCUCCAGCACAGUGAAAUGGACAGAAGGGCAGAGCAA, the figure is 0.477; as for AGUUGCUGCUGGGAGCUCCAGCACAGUGAAAUGGACAGAAGGGCAGGACAA, 0.0368. As for AGUUUCUUUUGGGAGCUCCAGCACAGUGAAAUGGACAGAGCGGCAGAGCAA, the figure is 0.76; as for AGUUCUUCUCGGGAGCUCCUCCACAGUGAAAUGGACAGAAGGGCAGAGCAA, 1.62.

For the variant AGUUAGGGAUGGGAGCUCCAGCAUAGUGAAAUGGACAGAAGGGCAGAGCAA, the “exon inclusion enrichment index” value is 0.00094.

As to AGUUGCUGCUGGGAGCUCCAGCACAUAGAAAUGGACAGAAGGGCAGAGCAA, the “exon inclusion enrichment index” value worked out at 0.0316. As for AGUUGAAGAAGGGAGCUCCAGCACAGUGAAAUGGUGAGAAGGGCAGAGCAA, the “exon inclusion enrichment index” value was determined as 0.054.

For AGUUCGCGCCGGGAGCUCCAGCACAGUGAAAUGGACUAAAGGGCAGAGCAA, the “exon inclusion enrichment index” value was 1.78. As for AGUUAGGGAUGGGAGCUCCAGCACAGUGAAAUCUACAGAAGGGCAGAGCAA, the figure is 0.00222; as for AGUUGACGACGGGCGCUCCAGCACAGUGAAAUGGACAGAAGGGCAGAGCAA, 3.07. As for AGUUACCACCGGGAGCUCCAGCACAGUGAAAUGGACACGAGGGCAGAGCAA, the figure is 2.15. As to AGUUGAAGAAGGGAGCUCCAGCACAGUGAAAUGGAUCGAAGGGCAGAGCAA, the “exon inclusion enrichment index” value amounted to 0.478. The value for AGUUGAAGAAGGGAGCUAUAGCACAGUGAAAUGGACAGAAGGGCAGAGCAA was 0.0166. As for AGUUGACGACGGGAGCUCCAGCACAGUGAAAUGGAAAGAAGGGCAGAGCAA, the figure is 2.48; as for AUUUCGCGCCGGGAGCUCCAGCACAGUGAAAUGGACAGAAGGGCAGAGCAA, 4.96; as for AAGUGCUGCUGGGAGCUCCAGCACAGUGAAAUGGACAGAAGGGCAGAGCAA, 0.0392. As for AGUUAGGGAUGGGAGCUCCAGCCUAGUGAAAUGGACAGAAGGGCAGAGCAA, the “exon inclusion enrichment index” value was 0.00192.

Turning to AUGUGACGACGGGAGCUCCAGCACAGUGAAAUGGACAGAAGGGCAGAGCAA, the “exon inclusion enrichment index” value is 4.84. As for AGUUCGAUCCGGGAGCUCCAGCACAGUGAAAUGGACAGAAGGGCAGAGCAA, the figure is 2.93; as for AGUUAGGGAUGGGAGCUCCAGCACAGUGAAAUGGACAGAAGGGCAUGGCAA, 0.00156. The value for AGUUCACACAGGGAGCUCCAGCACAGUGAAAUGGACAGAAGUGCAGAGCAA was 0.154; that for AGUUCUUCUCGGGAGCUCCGUCACAGUGAAAUGGACAGAAGGGCAGAGCAA was 2.01; that for AGUUAUAUAUGGGAGCUCCAGCACUGUGAAAUGGACAGAAGGGCAGAGCAA was 0.138. As for AGUUUCUUUUGGGAGCAGCAGCACAGUGAAAUGGACAGAAGGGCAGAGCAA, the figure is 0.0888.
